For two substances, Molecules per cell (molecules per cell), CD19 molecules/µm^2 under saturating conditions (CD19 molecules/µm^2) and CD19 molecules/µm^2 results are on record in patent US20200209240A1.

In test [1] the target is human CD19 (human) (UniProt P15391). The test can be described thus: dSTORM, isotype control on NALM-6 cells (background), antibody at 0.05 µg/ml.
For test [2] the target is unchanged. The experiment in a line: dSTORM, isotype control on NALM-6 cells (background), antibody at 5 × 10^-3 µg/ml.
Test [3] has the same target. The test can be described thus: dSTORM, isotype control on NALM-6 cells (background), antibody at 5 µg/ml.
The target is the same in test [4]. The test can be described thus: dSTORM, isotype control on NALM-6 cells (background), antibody at 10 µg/ml.
For test [5] the target is unchanged. The test can be described thus: dSTORM, isotype control on NALM-6 cells (background), antibody at 2.5 µg/ml.
For test [6] the target is unchanged. The test can be described thus: dSTORM, isotype control on NALM-6 cells (background), antibody at 0.5 µg/ml.
Test [7] has the same target. The experiment in a line: dSTORM, isotype control on NALM-6 cells (background), antibody at 5 × 10^-5 µg/ml.
Test [8] has the same target. The experiment in a line: dSTORM, isotype control on NALM-6 cells (background), antibody at 5 × 10^-4 µg/ml.
The target is the same in test [9]. The test can be described thus: dSTORM on NALM-6 cells, antibody at c≥2.5 µg/ml.
Test [10] has the same target. The experiment in a line: dSTORM, antibody titration on NALM-6 cells, antibody at 2.5 µg/ml.
For test [11] the target is unchanged. The experiment in a line: dSTORM, antibody titration on NALM-6 cells, antibody at 0.05 µg/ml.
Test [12] has the same target. The experiment in a line: dSTORM, antibody titration on NALM-6 cells, antibody at 10 µg/ml.
Test [13] shares this target. The experiment in a line: dSTORM, antibody titration on NALM-6 cells, antibody at 5 µg/ml.
For test [14] the target is unchanged. The experiment in a line: dSTORM, antibody titration on NALM-6 cells, antibody at 0.5 µg/ml.
For test [15] the target is unchanged. The experiment in a line: dSTORM, antibody titration on NALM-6 cells, antibody at 5 × 10^-5 µg/ml.
The target is the same in test [16]. The experiment in a line: dSTORM, antibody titration on NALM-6 cells, antibody at 5 × 10^-3 µg/ml.
For test [17] the target is unchanged. The experiment in a line: dSTORM, antibody titration on NALM-6 cells, antibody at 5 × 10^-4 µg/ml.
For test [18] the target is unchanged. The test can be described thus: dSTORM on NALM-6 cells, antibody at 5×10^-5 µg/ml.

Chain of UniProt P15391 (P15391 20-556): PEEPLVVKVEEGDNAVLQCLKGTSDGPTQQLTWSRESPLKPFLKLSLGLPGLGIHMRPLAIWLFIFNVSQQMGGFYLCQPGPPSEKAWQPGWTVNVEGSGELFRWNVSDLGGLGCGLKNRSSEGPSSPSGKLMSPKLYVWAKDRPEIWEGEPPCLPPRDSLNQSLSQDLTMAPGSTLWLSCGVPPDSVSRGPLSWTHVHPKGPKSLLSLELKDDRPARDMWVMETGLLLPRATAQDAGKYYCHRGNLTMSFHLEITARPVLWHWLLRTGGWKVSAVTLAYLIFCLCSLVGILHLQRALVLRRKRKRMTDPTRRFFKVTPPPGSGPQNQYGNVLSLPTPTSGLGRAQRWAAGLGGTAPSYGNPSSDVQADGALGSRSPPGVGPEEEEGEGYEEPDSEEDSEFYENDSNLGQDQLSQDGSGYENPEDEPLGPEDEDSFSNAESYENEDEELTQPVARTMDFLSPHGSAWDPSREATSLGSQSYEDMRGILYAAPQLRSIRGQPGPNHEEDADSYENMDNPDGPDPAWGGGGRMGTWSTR

Regarding “AF647 isotype control antibody (BioLegend)”, the Molecules per cell (molecules per cell) worked out at 7.1 in test [1]; 1.3 in test [2]; 85 in test [3]; 72 in test [4]; 50 in test [5]; 44 in test [6]. Besides, the Molecules per cell (molecules per cell) in test [7] was 0; in test [8], 0.8.

Substance “anti-CD19 antibody, clone HIB19, Alexa Fluor 647 conjugate (BioLegend)” registered a CD19 molecules/µm^2 under saturating conditions (CD19 molecules/µm^2) in test [9] of 3.4. Further, the Molecules per cell (molecules per cell) in test [10] is 1780; in test [11], 182; in test [12], 1880; in [13], 1860; in test [14] it was 710; in [15], 3.1. The Molecules per cell (molecules per cell) in [16] is 67; in test [17], 12. Further, the CD19 molecules/µm^2 at the detection limit (CD19 molecules/µm^2) in test [18] stood at 0.006.
